Experimental data from patent US20230340027A1 (TECHNION RESEARCH AND DEVELOPMENT FOUNDATION, published 2023).
Positions of bridges follow the written chain, without caps; N, C: chain ends. code X = not defined here

Columns and labels:
biotin-tetra-UbK48 [1] = target: T1, biotin-tetra-UbK48 (UniProt P0CG48 1-76, Ub monomers linked to one another via Lys48 (K48); biotin tag (site not stated)); assay: the filing's modified fluorescence assay, FITC-labelled peptide on tetra-UbK48 (FIGS. 1G and 26)
T1 construct: Immobilised on streptavidin-coated 96-well plates (1 ug per well); one ubiquitin repeat is meant; also called biotin tagged tetra-UbK48

biotin-tetra-UbK48 [2] = target: T1, biotin-tetra-UbK48; assay: direct fluorescence plate binding: biotin-tetra-UbK48 on a streptavidin plate, labeled peptide titrated, bound peptide released with 6 M Gn.HCl and read (ex 480 nm, em 525 nm); one-site fit

Kd (biotin-tetra-UbK48 [1]): 12.3 nM
EC50 (read off the curve) (biotin-tetra-UbK48 [2]): ~10 nM
B1: (Ub4_ix_S7C)2CH2-FITC (peptide)
peptide: {CH2CO}-WLYLDDCGDWWICG-{code X-C(fluorescein-5-maleimide)-NH2}
modifications: thioether N-13 (inferred); reading uncertain; also: dimer: Cys7 joined to Cys7 of second copy by -S-CH2-S-, residue 15 not given here
notes: Dimer of peptide 29, so each chain carries the label; also called FITC labeled stapled dimer 30; 30
